Paper PMC6105727, “Architecture of the native major royal jelly protein 1 oligomer” (Nature Communications, 2018)

Assays:
[1] = molecular target: T1, MRJP1 oligomer (MRJP1_4-apisimin4-24-methylenecholesterol8 complex) (Apis mellifera, UniProt O18330+Q8ISL8); experiment: X-ray crystal structure at […] Å; co-purified ligand identified by GC-MS and NMR; format: binding; conditions: co-purified natural ligand; eight per complex (four per asymmetric unit); inner two contact MRJP1 and apisimin, outer two apisimin only; crystals at pH 8.5
T1 construct: native complex purified from royal jelly; mature chains without signal peptides; partly deglycosylated with PNGase F (NAG left at Asn144); modelled MRJP1 23-432 and 28-432, apisimin 37-77 and 36-78; 254 kDa by AUC
T1 sequence (O18330 20-432): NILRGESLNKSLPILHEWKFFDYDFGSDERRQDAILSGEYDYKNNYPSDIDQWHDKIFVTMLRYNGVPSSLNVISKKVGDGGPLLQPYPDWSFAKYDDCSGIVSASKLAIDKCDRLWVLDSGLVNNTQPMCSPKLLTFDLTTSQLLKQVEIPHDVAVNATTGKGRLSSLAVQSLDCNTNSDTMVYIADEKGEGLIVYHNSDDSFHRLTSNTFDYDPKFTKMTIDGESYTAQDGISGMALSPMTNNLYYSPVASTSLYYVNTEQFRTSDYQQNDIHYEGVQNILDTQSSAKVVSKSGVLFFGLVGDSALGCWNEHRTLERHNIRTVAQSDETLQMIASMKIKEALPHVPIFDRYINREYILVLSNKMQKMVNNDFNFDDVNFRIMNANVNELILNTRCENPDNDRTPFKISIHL
T1 sequence (Q8ISL8 25-78): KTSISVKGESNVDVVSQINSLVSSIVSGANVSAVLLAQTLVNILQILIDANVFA

[2] = molecular target: T2, Major royal jelly protein 1 (Apis mellifera, UniProt O18330 20-432, N-acetylglucosamine linked to Asn144 (seen in the crystal after partial deglycosylation); native glycoprotein); experiment: crystal structure; native MRJP1 oligomer from royal jelly, deglycosylated with PNGase F; hanging drop, 0.1 M Tris pH 8.5, 2.0 M ammonium phosphate; 2.65 Å, space group H32
T2 construct: Major royal jelly protein 1 (MRJP1) of the honeybee Apis mellifera; mature protein without N-terminal signal peptide; modelled residues 23-432 (protomer A) and 28-432 (protomer B); Native protein; occurs in royal jelly as a monomer fraction and as an oligomer with apisimin and 24-methylenecholesterol; also called MRJP1; royalactin (the monomer); source: purified from royal jelly (ultrafiltration, …)
T2 sequence (looked up): T1 sequence (O18330 20-432)

[3] = molecular target: T2, Major royal jelly protein 1; experiment: SEC + other: SAXS; purified native MRJP1 oligomer at near-neutral pH; SAXS in 20 mM sodium phosphate pH 8, 150 mM NaCl, 0.1-10 mg/mL
[4] = molecular target: T2, Major royal jelly protein 1; experiment: SEC; gel filtration of royal jelly collected from the nectar of different plants and from different honeybee species (Supplementary Fig. 10A, B)
[5] = molecular target: Major royal jelly protein 1 of Apis cerana (Apis cerana); experiment: as above
[6] = molecular target: the molecule itself; experiment: crystal structure; native MRJP1 oligomer from royal jelly, deglycosylated with PNGase F; hanging drop, 0.1 M Tris pH 8.5, 2.0 M ammonium phosphate; 2.65 Å, space group H32

C=C(CC[C@@H](C)[C@H]1CC[C@H]2[C@@H]3CC=C4C[C@@H](O)CC[C@]4(C)[C@H]3CC[C@]12C)C(C)C [Osl, 24-methylenecholesterol]
X-ray crystal structure at 2.65 Å; co-purified ligand identified by GC-MS and NM [1]: The asymmetric unit contains two MRJP1, two apisimin, four unexpected 24-methylenecholesterol (ostreasterol, Osl)

Major royal jelly protein 1 (from UniProt O18330 20-432) (natural protein)
stoichiometry N [2]: 4
stoichiometry N [3]: 4
stoichiometry N [4]: 4

Major royal jelly protein 1 of Apis cerana (natural protein)
stoichiometry N [5]: 4

B1: apisimin (peptide, UniProt Q8ISL8 25-78, looked up)
chain: T1 sequence (Q8ISL8 25-78)
notes: Apisimin, serine-valine-rich peptide of the honeybee; mature protein without N-terminal signal peptide; modelled residues 37-77 (protomer C) and 36-78 (protomer D); source: co-purified with the native MRJP1 oligomer from royal jelly
binding result ([2]; both partners purified): binds
binding result [6]: binds
